{"source": "patent US20240166695A1", "about": "“PEPTIDIC POSITIVE ALLOSTERIC MODULATORS TARGETING TRPV1” (priority 2021, published 2024)", "molecules": {"B1": {"name": "De1: designed 93-residue protein binder to TRPV1 ARD, scaffold 1QZM, SEQ ID NO: 8 (protein)", "chain": "NGYSSEDKLRIAKRHLLPKQIERNALKKGELFVSEFAILGIILFYTDEAGVRGLEREISKLCRKAVKQLLLDKSTTSSHASGFHLHDYLGVMR"}, "B2": {"name": "De2: optimized version of De1, 93 residues, scaffold 1QZM, SEQ ID NO: 37 (protein)", "chain": "B1 chain with S4W, L9E, F32K, S34W, L39F, D47W, S77R, H79W"}, "B3": {"name": "De4: design on scaffold 2HDZ used as negative control because it cannot refold well, SEQ ID NO: 38 (protein)", "chain": "LPESPRFAQKIWQQSVIGDYLARFKNDRVKALKAMEDSSNNSSMHRFAEFFAKAFEDLHRYLEEL"}}, "key": {"[1]": {"test_system": "TRPV1 channel", "assay": "Airyscan super resolution imaging of TRPV1-YFP and De1-CFP in HEK293 cells", "type": "cell-based", "settings": "co-transfected HEK293 cells", "method": "Super-resolution fluorescence microscopy was performed with the Zeiss LSM 880 fluorescence microscope with Airyscan. YFP fused to TRPV1 and CFP fused to the designed proteins were excited by laser line at 488 nm and 458 nm, respectively. We used a 60× oil-immersion objective (NA 1.42) in these experiments. Fluorescence imaging was performed with the default settings for CFP and YFP channels in the microscope controlled by the Zeiss ZEN software. Overlay of YFP- and CFP-channel images was also done in ZEN."}, "[2]": {"molecular_target": "T1, ARD of TRPV1 (Rattus norvegicus, UniProt O35433)", "T1 construct": "made in house; host or cells: E. coli BL21 (DE3), pET-32a", "T1 sequence (O35433 with tags, fused parts or gaps)": "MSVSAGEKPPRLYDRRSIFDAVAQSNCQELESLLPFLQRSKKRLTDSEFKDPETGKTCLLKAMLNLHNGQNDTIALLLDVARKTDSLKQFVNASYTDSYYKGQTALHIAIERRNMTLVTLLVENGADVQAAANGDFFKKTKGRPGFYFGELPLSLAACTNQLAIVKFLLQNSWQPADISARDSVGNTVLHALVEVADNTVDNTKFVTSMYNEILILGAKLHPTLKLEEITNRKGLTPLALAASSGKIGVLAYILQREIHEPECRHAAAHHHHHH", "assay": "Surface plasmon resonance, ARD immobilized on CM5 sensor chip", "type": "binding", "settings": "protein boiled to disrupt three-dimensional structure", "text": "To further quantify the binding affinity of the designs to the ARD, we expressed and purified both designed proteins and the ARD in E. coli. The DNA sequence of each designed protein and the ARD of TRPV1 (see their primary protein sequences in Table 6) was synthesized and inserted into the pET-32a plasmid after codon optimization for protein expression in bacteria E. coli BL21 (DE3) was transformed with the recombinant plasmids. A single colony was inoculated into media containing ampicillin; cultures were incubated in 37° C. at 200 rpm. Once cell density reached to OD 0.8-1.0 at 600 inn, IPTG was introduced for induction. SDS-PAGE was used to monitor the expression. […] The protein expression was stopped by centrifugation at 8000 rpm for 30 min. We collected cells and resuspended in resuspension solution containing 50 mM Tris-HCl, 150 mM NaCl, 10% glycerol and protease inhibitor (pH 7.4). The cells were lysed by sonication. The supernatant after centrifugation was kept for future purifications. Taget proteins were obtained by Ni column, and then further purified by the reversed phase HPLC on a Jupiter C4 column (10×250 mm, Phenomenex, Torrance, CA, USA). […]\nWe then quantified the binding of De1 and De3 to the ARD protein fixed on the sensor chip by surface plasma resonance (SPR) (FIGS. 6A and 6B). […] Steady-state SPR responses were measured and used to determine the KD values. […]"}, "[3]": {"test_system": "TRPV1 channel", "assay": "FRET imaging of TRPV1-YFP and design-CFP co-expressed in HEK293 cells", "type": "binding", "settings": "for FRET ratio max: HEK293 cells; for FRET signal between design-CFP and TRPV1-YFP: co-expressed in cells; for FRET efficiency: spectraFRET, design-CFP and TRPV1-YFP", "text": "Any design candidate can be assessed for the ability to bind TRPV1 using techniques including, but not limited to, the FRET protocols and SPR protocols described herein. For example, complementary fluorescent proteins (including, but not limited to, GFP CFP, YFP, and the like) may be fused recombinantly to a designed peptide and to TRPV1 for assessment of TRPV1 binding via FRET. In some non-limiting embodiments, binding of a candidate modulator to TRPV1 can be confirmed by observing a FRET ratio max of at least 1.25 when YFP is fused to the C-terminus of TRPV1, CFP is fused to the C-termini of a candidate peptide. In some embodiments, binding of a candidate modulator to TRPV1 can be confirmed by observing a FRET efficiency greater than about 4% (e.g., at least 5%, or at least 7%) when YFP is fused to the C-terminus of TRPV1, CFP is fused to the C-termini of a candidate peptide. FRET measurements can be made by co-expressing the FRET-labeled constructs in host cells, exciting the CFP construct in the host cells at 458 inn, and observing YFP emission at 530 nm. CFP emission can be separated from YFP emission by fitting of standard spectra acquired from cells expressing YFP or CFP only.\nFRET efficiency is defined in its usual definition; it is inversely related to the sixth power of the distance between complementary fluorescent proteins on the binding partners. FRET efficiency is quantified from measurements of the fluorescence emission spectra, using the established method.\nFRET ratios can be calculated from the increase in YFP emission due to energy transfer as described previously (Qiu, et al. J. Biol. Chem. 2005, 280, 24923, incorporated herein by reference in its entirety). CFP emission can be separated from YFP emission by fitting of standard spectra acquired from cells expressing only YFP or CFP. The fraction of YFP-tagged molecules that are associated with CFP-tagged molecules, Ab, is calculated as Ab=1/(1+KD/[Dfree]), where KD is the dissociation constant and [Dfree] is the concentration of free donor molecules. The FRET Ratio=1+Ab*(FRET Ratiomax−1). Regression analysis can be used to estimate Ab in individual cells. From each cell, the FRET ratioexp is experimentally determined. The predicted Ab value is then computed by adjusting two parameters, FRET Ratiomax, and apparent KD Ab was in turn used to give a predicted FRET ratiopredicted. By minimizing the squared errors (FRET ratioexp. FRET ratiopredicted)^2, KD was determined.\nApparent FRET efficiency can be calculated from the enhancement of YFP acceptor fluorescence emission due to energy transfer from the CFP donor using previously described methods. [see, e.g., Yang and Zheng, et al. Proc. Natl. Acad. Sci. U.S.A. 2010, 107 7083, which is incorporated herein by reference]. RatioA0, and RatioA1, are measured to calculate FRET efficiency. RatioA0, represents the ratio between acceptor emission intensities (in the absence of the donor) upon excitation at the donor and acceptor excitation wavelengths, and can be calculated at the YFP peak emission wavelength. A particular advantage of quantifying RatioA0 for FRET measurement is that changes in fluorescence intensity caused by many experimental factors cap be cancelled out by the ratiometric measurement:\nTo experimentally test whether our designed proteins work as PAM of TRPV1, we first tested whether they could interact with TRPV1 channel in live cells. We genetically fused YFP and CFP to the C termini of TRPV1 and our designs, respectively.\nFor spectroscopic imaging in FRET experiments, the imaging system was built upon a Nikon TE2000-U microscope. The excitation light was generated by an Ar laser. The duration of light exposure was controlled by a computer-driven mechanical shutter (Uniblitz). A spectrograph (Acton SpectraPro 2150i) was used in conjunction with a CCD camera (Roper Cascade 128B). […]"}, "[4]": {"test_system": "TRPV1", "assay": "Calcium imaging (Fluo-4) of capsaicin activation in transfected HEK293 cells", "type": "cell-based", "settings": "0.5 nM capsaicin; design co-expressed with TRPV1", "method": "We then investigated whether, upon binding of the designed proteins, TRPV1 activation was positively modulated. […] Probenecid (2 mM) was included in all solutions to prevent Fluo-4 leakage from cells. At the end of incubation, cells were washed three times with ECS and incubated in the same solution for another 20 min at room temperature to complete the intracellular hydrolysis process of the AM ester, which converts the non-fluorescent Fluo-4/AM into the fluorescent version Fluo-4.\nCoverslip with dye-loaded cells was placed in the quick-release magnetic chamber (Warner) and mounted on the stage of a Nikon Eclipse TE2000-U microscope system equipped with a Roper Cascade 128B CCD camera. Fluo-4 was excited by an Argon laser with a filter set of Z488/10 (excitation), z488rdc (dichroic) and recorded through an emission filter HQ5001p (all from Chroma). The duration of light exposure was controlled by a computer-driven mechanical shutter (Uniblitz). Cell images were acquired sequentially with an exposure period of 200 ms at an interval of 1 s. The shutter and the camera were controlled and synchronized by MetaMorph software (Universal Imaging)."}, "[5]": {"molecular_target": "T2, TRPV1 (UniProt Q704Y3)", "T2 construct": "other: TRPV1 alone; absence of extracellular calcium; other: design co-expressed with TRPV1; extracellular calcium p; repeated caps; fused on or other part: Possibly YFP at the C-terminus", "assay": "Whole-cell patch-clamp recordings of capsaicin activation, desensitization and tachyphylaxis", "type": "cell-based", "settings": "design co-expressed with TRPV1; for acute current desensitization upon capsaicin activation: extracellular calcium present", "method": "Patch-clamp recordings were performed with a HEKA EPC10 amplifier controlled by PatchMaster software (HEKA). Whole-cell recordings at ±80 mV were used to test whether an ANAP-incorporated channel was functional. Patch pipettes were prepared from borosilicate glass and fire-polished to resistance of ˜4 MΩ. For whole-cell recording, serial resistance was compensated by 60%. A solution with […], 10 mM glucose, 0.2 mM EDTA and 3 mM HEPES (pH 7.2) was used in both bath and pipette for concentration response curve measurements in TRPV1, TRPV2 and TRPV3. To measure calcium-dependent ligand-induced desensitization and tachyphylaxis, 2 mM CaCl2 was added to the solution. Membrane potential was clamped at ±80 mV. Current was sampled at 10 kHz and filtered at 2.9 kHz. All recordings were performed at room temperature (22° C.) with the maximum variation of 1° C.\nLigands were perfused to membrane patch by a gravity-driven system (RSC-200, Bio-Logic). Bath and ligand solution were delivered through separate tubes to minimize the mixing of solutions. Patch pipette was placed in front of the perfusion tube outlet."}}, "note": "Where a chain is given by its changes, count along the chain named.", "data": [{"molecule": "B1", "values": [{"measurement": "co-localization with TRPV1 on cell membrane", "setting": "[1]", "result": "clear co-localization"}, {"measurement": "binding with the ARD after boiling of the protein", "setting": "[2]", "result": "completely abolished"}, {"measurement": "FRET ratio max", "setting": "[3]", "result": 3.86}, {"measurement": "FRET signal between design-CFP and TRPV1-YFP", "setting": "[3]", "result": "positive FRET signals"}, {"measurement": "activation of TRPV1 by low capsaicin concentration when co-expressed with design", "setting": "[4]", "result": "sufficient to activate TRPV1 channels"}, {"measurement": "acute current desensitization upon capsaicin activation", "setting": "[5]", "result": "significantly slowed down"}, {"measurement": "capsaicin induced tachyphylaxis", "setting": "[5]; repeated capsaicin application", "result": "capsaicin induced tachyphylaxis was reduced"}]}, {"molecule": "B2", "values": [{"measurement": "FRET ratio max", "setting": "[3]", "result": 2.35}, {"measurement": "FRET signal between design-CFP and TRPV1-YFP", "setting": "[3]", "result": "positive FRET signals"}, {"measurement": "FRET efficiency", "setting": "[3]", "result": 7.4, "unit": "%"}, {"measurement": "acute current desensitization upon capsaicin activation", "setting": "[5]", "result": "no such an effect was observed"}]}, {"molecule": "B3", "values": [{"measurement": "FRET signal between design-CFP and TRPV1-YFP", "setting": "[3]", "result": "no FRET occurred"}, {"measurement": "FRET efficiency", "setting": "[3]", "result": 3.8, "unit": "%"}, {"measurement": "acute current desensitization upon capsaicin activation", "setting": "[5]", "result": "no such an effect was observed"}]}]}
